Experimental data: patent EP1275713A1

Biological target: human TLR4 (human) (UniProt O00206)
Experiment: BIACORE 3000: TLR4-COS cells (1.7 × 10^5 cells/mL) premixed with 33 µg/mL sCD14(1-307)S286C for 20 minutes, injected over immobilized sCD14(1-356)/LPS

UniProt O00206, sequence (O00206 24-839): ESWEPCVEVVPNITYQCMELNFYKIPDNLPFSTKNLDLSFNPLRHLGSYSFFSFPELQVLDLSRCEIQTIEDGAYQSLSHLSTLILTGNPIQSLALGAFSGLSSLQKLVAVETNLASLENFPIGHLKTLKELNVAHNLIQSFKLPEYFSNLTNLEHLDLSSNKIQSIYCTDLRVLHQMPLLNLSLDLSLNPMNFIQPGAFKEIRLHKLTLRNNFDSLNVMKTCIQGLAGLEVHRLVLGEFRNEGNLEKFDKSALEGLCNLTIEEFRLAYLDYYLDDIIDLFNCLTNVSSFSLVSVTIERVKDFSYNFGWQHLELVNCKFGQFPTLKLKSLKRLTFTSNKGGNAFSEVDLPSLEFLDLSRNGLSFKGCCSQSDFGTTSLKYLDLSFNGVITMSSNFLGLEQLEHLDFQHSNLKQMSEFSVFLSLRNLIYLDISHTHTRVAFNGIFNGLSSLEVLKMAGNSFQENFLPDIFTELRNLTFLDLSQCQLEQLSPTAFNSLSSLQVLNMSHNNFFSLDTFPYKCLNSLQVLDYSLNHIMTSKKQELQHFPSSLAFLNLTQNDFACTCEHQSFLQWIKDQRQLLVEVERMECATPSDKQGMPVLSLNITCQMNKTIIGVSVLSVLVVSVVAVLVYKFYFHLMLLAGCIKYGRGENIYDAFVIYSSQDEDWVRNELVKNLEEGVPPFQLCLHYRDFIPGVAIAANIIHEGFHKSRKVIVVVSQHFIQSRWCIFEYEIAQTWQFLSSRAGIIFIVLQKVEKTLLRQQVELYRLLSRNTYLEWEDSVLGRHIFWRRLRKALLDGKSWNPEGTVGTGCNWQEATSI

- suppression of binding: 100%
B1: sCD14(1-307)S286C (receptor)
chain: TTPEPCELDDEDFRCVCNFSEPQPDWSEAFQCVSAVEVEIHAGGLNLEPFLKRVDADADPRQYADTVKALRVRRLTVGAAQVPAQLLVGALRVLAYSRLKELTLEDLKITGTMPPLPLEATGLALSSLRLRNVSWATGRSWLAELQQWLKPGLKVLSIAQAHSPAFSCEQVRAFPALTSLDLSDNPGLGERGLMAALCPHKFPAIQNLALRNTGMETPTGVCAALAAAGVQPHSLDLSHNSLRATVNPSAPRCMWSSALNSLNLSFAGLEQVPKGLPAKLRVLDLCCNRLNRAPQPDELPEVDNLTL
